{
  "source": "patent US20260250320A1",
  "about": "“LIPIDATED PEPTIDE INHIBITORS OF INTERLEUKIN-23 RECEPTOR” (Janssen Pharmaceutica NV, priority 2023, published 2026)",
  "binders": {"B1": {"name": "SEQ ID NO: 98 (peptide)", "peptide": "Ac-[dK]([PEG12′-γGlu-C18OH])[Pen]NT[Trp(7-Me)]K(Ac)[Pen][AEF][2Nal][Thp]K(Ac)N[3Pal][Sar]-NH2", "modifications": "disulfide 2-7 (inferred)"}, "B2": {"name": "SEQ ID NO: 99 (peptide)", "peptide": "Ac-[dR][Pen]K([PEG12′-γGlu-C20OH])T[Trp(7-Me)]K(Ac)[Pen][AEF][2Nal][Thp]EN[3Pal][Sar]-NH2", "modifications": "disulfide 2-7 (inferred)"}, "B3": {"name": "SEQ ID NO: 100 (peptide)", "peptide": "XNTXXXXXXKNXX", "modifications": "MeCO-Pen(3)-N-T-7MeW-K(Ac)-Pen(3)-AEF-2Nal-THP-K(PEG12gEC18OH)-N-3Pya-Sar-CONH2"}, "B4": {"name": "SEQ ID NO: 101 (peptide)", "peptide": "XNTXXXXXXXNXXK", "modifications": "MeCO-Pen(3)-N-T-7MeW-K(Ac)-Pen(3)-AEF-2Nal-THP-K(Ac)-N-3Pya-Sar-K(PEG12gEC20OH)-CONH2"}, "B5": {"name": "SEQ ID NO: 102 (peptide)", "peptide": "XNTXXXXXXXNXXK", "modifications": "MeCO-Pen(3)-N-T-7MeW-K(Ac)-Pen(3)-AEF-2Nal-THP-K(Ac)-N-3Pya-Sar-K(PEG12gEC18OH)-CONH2"}, "B6": {"name": "SEQ ID NO: 103 (peptide)", "peptide": "XNTXXXXXXENXXK", "modifications": "MeCO-Pen(3)-N-T-7MeW-K(Ac)-Pen(3)-AEF-2Nal-THP-E-N-3Pya-Sar-K(PEG12gEC20OH)-CONH2"}, "B7": {"name": "SEQ ID NO: 104 (peptide)", "peptide": "Ac-[dK]([PEG12′-γGlu-C20OH])[Pen]NT[Trp(7-Me)]K(Ac)[Pen][AEF][2Nal][Thp]K(Ac)N[3Pal]X-NH2", "modifications": "disulfide 2-7 (inferred); not fully specified (residue 14); printed as MeCO-k(PEG12gEC20OH)-Pen(3)-N-T-7MeW-K(Ac)-Pen(3)-AEF-2Nal-THP-K(Ac)-N-3Pya-Ser-CONH2"}, "B8": {"name": "SEQ ID NO: 105 (peptide)", "peptide": "Ac-[dR][Pen]K([PEG12′-γGlu-C18OH])T[Trp(7-Me)]K(Ac)[Pen][AEF][2Nal][Thp]EN[3Pal][Sar]-NH2", "modifications": "disulfide 2-7 (inferred)"}, "B9": {"name": "SEQ ID NO: 116 (peptide)", "peptide": "{HOC18-γGlu-PEG12′}-[Pen]NTK(Ac)[Pen][AEF][2Nal][Thp]EN[3Pal][Sar]-NH2", "modifications": "disulfide 1-5 (inferred); not fully specified; printed as HOC18gEPEG12CO-Pen(3)-N-T-K(Ac)-Pen(3)-AEF-2Nal-THP-E-N-3Pya-Sar-CONH2"}, "B10": {"name": "SEQ ID NO: 117 (peptide)", "peptide": "Ac-[dK]([PEG12′-γGlu-C18OH])[Pen]NT[Trp(7-Me)]K(Ac)[Pen][AEF][2Nal][Thp]EN[3Pal][Sar]-NH2", "modifications": "disulfide 2-7 (inferred)"}, "B11": {"name": "SEQ ID NO: 133 (peptide)", "peptide": "Ac-[dR][Pen]NT[Trp(7-Me)]K(Ac)[Pen][AEF][2Nal][Thp]EN[3Pal][Sar]K([PEG12′-γGlu-C18OH])-NH2", "modifications": "disulfide 2-7 (inferred)"}, "B12": {"name": "SEQ ID NO: 134 (peptide)", "peptide": "Ac-[dR][Pen]NT[Trp(7-Me)]K(Ac)[Pen][AEF][2Nal][Thp]EN[3Pal][Sar]K([PEG12′-γGlu-C20OH])-NH2", "modifications": "disulfide 2-7 (inferred)"}, "B13": {"name": "SEQ ID NO: 149 (peptide)", "peptide": "XNTXXXXXXENXXK", "modifications": "MeCO-Pen(3)-N-T-7MeW-K(Ac)-Pen(3)-AEF-2Nal-THP-E-N-3Pya-Sar-K(PEG2PEG2gEC18OH)-CON(Me)2"}},
  "note": "*1 amine or outer side, *2 acyl side, *3 side chain or, on linkers, in order; H or OH if unused. Bridges are numbered along the chain shown (N, C = ends). Primed or numbered codes have the meaning given here. Side-chain parts run from the residue outwards. [ ]: non-standard residue; d: D form. Trp(7-Me) = Cc1cccc2c(C[C@H](N)C(=O)O)c[nH]c12; γGlu = O=C(O)[C@H](CCC(=O)[*:2])N[*:1]; 2Nal = N[C@@H](Cc1ccc2ccccc2c1)C(=O)O; AEF = NCCOc1ccc(C[C@H](N)C(=O)O)cc1; 3Pal = N[C@@H](Cc1cccnc1)C(=O)O; Pen = CC(C)(S)[C@H](N)C(=O)O; PEG12′ = not defined here; Thp = NC1(C(=O)O)CCOCC1; Sar = CNCC(=O)O",
  "data": [
    {"biological_target": "T1, interleukin-23 receptor (IL-23R) (UniProt Q5VWK5 24-629, limits assumed)", "T1 sequence (looked up)": "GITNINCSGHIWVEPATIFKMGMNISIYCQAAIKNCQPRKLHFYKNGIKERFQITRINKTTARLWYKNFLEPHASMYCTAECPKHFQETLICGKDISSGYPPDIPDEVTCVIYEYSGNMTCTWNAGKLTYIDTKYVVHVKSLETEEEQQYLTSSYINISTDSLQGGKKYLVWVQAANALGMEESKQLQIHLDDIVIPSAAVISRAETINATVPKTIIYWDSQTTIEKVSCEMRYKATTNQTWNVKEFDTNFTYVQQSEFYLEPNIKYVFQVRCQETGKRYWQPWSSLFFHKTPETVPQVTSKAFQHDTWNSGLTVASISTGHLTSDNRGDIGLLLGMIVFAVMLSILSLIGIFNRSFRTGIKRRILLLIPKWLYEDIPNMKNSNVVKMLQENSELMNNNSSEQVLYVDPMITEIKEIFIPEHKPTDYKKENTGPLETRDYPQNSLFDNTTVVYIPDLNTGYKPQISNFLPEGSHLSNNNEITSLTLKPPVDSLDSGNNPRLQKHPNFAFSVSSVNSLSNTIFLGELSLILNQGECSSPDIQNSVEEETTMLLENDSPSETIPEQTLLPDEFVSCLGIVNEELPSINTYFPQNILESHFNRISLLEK", "assay": "cell-based or functional assay", "units": {"IC50, IL23R reporter assay": "nM"}, "values": [
      {"binder": "B1", "IC50, IL23R reporter assay": "< 50"},
      {"binder": "B2", "IC50, IL23R reporter assay": "< 50"},
      {"binder": "B3", "IC50, IL23R reporter assay": "< 50"},
      {"binder": "B4", "IC50, IL23R reporter assay": "< 50"},
      {"binder": "B5", "IC50, IL23R reporter assay": "< 50"},
      {"binder": "B6", "IC50, IL23R reporter assay": "< 50"},
      {"binder": "B7", "IC50, IL23R reporter assay": "< 50"},
      {"binder": "B8", "IC50, IL23R reporter assay": "< 50"},
      {"binder": "B9", "IC50, IL23R reporter assay": "< 50"},
      {"binder": "B10", "IC50, IL23R reporter assay": "< 50"},
      {"binder": "B11", "IC50, IL23R reporter assay": "< 50"},
      {"binder": "B12", "IC50, IL23R reporter assay": "< 50"},
      {"binder": "B13", "IC50, IL23R reporter assay": "≥ 500"}
    ]},
    {"biological_target": "T1, interleukin-23 receptor (IL-23R)", "assay": "cell-based or functional assay", "remark": "another data set of the same source", "units": {"PBMC pSTAT3 IC50": "nM"}, "values": [
      {"binder": "B1", "PBMC pSTAT3 IC50": "< 0.5"},
      {"binder": "B2", "PBMC pSTAT3 IC50": "< 0.5"},
      {"binder": "B3", "PBMC pSTAT3 IC50": "< 0.5"},
      {"binder": "B4", "PBMC pSTAT3 IC50": "< 0.5"},
      {"binder": "B5", "PBMC pSTAT3 IC50": "< 0.5"},
      {"binder": "B6", "PBMC pSTAT3 IC50": "< 0.5"},
      {"binder": "B7", "PBMC pSTAT3 IC50": "< 0.5"},
      {"binder": "B8", "PBMC pSTAT3 IC50": "< 0.5"},
      {"binder": "B9", "PBMC pSTAT3 IC50": "< 0.5"},
      {"binder": "B10", "PBMC pSTAT3 IC50": "< 0.5"},
      {"binder": "B11", "PBMC pSTAT3 IC50": "< 0.5"},
      {"binder": "B12", "PBMC pSTAT3 IC50": "< 0.5"},
      {"binder": "B13", "PBMC pSTAT3 IC50": "≥ 5"}
    ]}
  ]
}
